{
  "source": "paper PMC4876375",
  "molecular_target": "chimeric mouse h-ferritin-M6A (recombinant) (mouse | not stated)",
  "test": "SEC; HiLoad 26/60 Superdex 200; 20 mM Tris-HCl pH 8, 200 mM KCl, 10% glycerol, 2 mM TCEP; elution volume compared with horse spleen ferritin (~440 kDa)",
  "data": [
    {"substance": "chimeric mouse h-ferritin-M6A (recombinant)", "values": [
      {"measurement": "stoichiometry N", "value": 24}
    ]}
  ]
}
